Results as given in PMC3556364.
Read-outs that look alike come from different tables or passages of the source.

Assays:
[1] = target: Azotobacter vinelandii ^NifIscA (Azotobacter vinelandii); assay: SEC
[2] = target: Azotobacter vinelandii ^NifIscA (Azotobacter vinelandii); assay: SEC; remark: listed apart in the source

Work on “Azotobacter vinelandii ^NifIscA (natural protein)” yielded a stoichiometry N [1] of 2 and a stoichiometry N [2] of 2.
